System: K4 kissing-loop RNA reporter
Test: apparent KD of K4 kissing-loop reporter; higher = weaker reporter binding
Settings: Eterna round: R107
Protocol: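 RNA-MaP round R107: designed RNA switches with theophylline, tryptophan, arginine or FMN aptamers are transcribed on-chip within common flanks. They are titrated with a labelled K4 kissing-loop RNA reporter in RNA-MaP buffer (100 mM Tris pH 7.5, 80 mM KCl, 4 mM MgCl2), without ligand or with the indicated ligand. Median apparent KD per design.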

[1] = input ligand: theophylline 20 uM
[2] = input ligand: tryptophan 2.4 mM
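Further: bound reporter read as fluorescence of individual clusters on recovered sequencing chips by microscopy, with normalized cluster intensities fitted with a binding model.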

Sequence	apparent KD of K4 kissing-loop reporter (input ligand: FMN 200 uM)	apparent KD of K4 kissing-loop reporter (input ligand: arginine 13.2 mM)	apparent KD of K4 kissing-loop reporter (input ligand: none)	apparent KD of K4 kissing-loop reporter [1]	apparent KD of K4 kissing-loop reporter [2]
GUGCGCGCGGCGGCCGCCACUCGCAUGAGAGUGAUGUUCUCACCGUGACCGCAAGGUCGCGGUGUGAGGACCGGGCCGGGCUGCG [#2 Same State - Tryptophan B Attempt #25 (HarryS)]	74.3 nM	93.5 nM	217 nM	464 nM	297 nM
AAGUACACGAUAGUGUACACCUAGUGAUGUUAGGAUAUGCAGAUAUGCAGAAGGAGCAAGUCAUCUGACAAUAGUCGGAUGACAA [FmnAX 7 #OpenEnded #K4Early]	315 nM	63.2 nM	89.4 nM	107 nM	80.2 nM
AGAGUUAAUUAGUCAUUUUUCACAUUAAGUCAGGAUAUCGUAUUUUCGAGAAGGGACACAUGCUAGUGAUGUUAGCUAUUUCUCA [JR_Nu_ExcFMNA_Sub021]	63.6 nM	93.9 nM	68.3 nM	105 nM	56.9 nM
AUGGUAUUGCGAGGAUAUCCUUCCCACGUCGAAGUACCGUGCUUGAUGGAGUGAUGUUCGAUCAGAGGAGAAGGCGCGGUGUUAU [Same State FMN B GF22]	706 nM	368 nM	572 nM	645 nM	639 nM
GGUGGCUUACAAAGCUCAGUGAUGUUGAGCCGAGGACCGGUACGGCCGCCACUCGUUUGCCAUUCACUACAGUUACAAGCACUAG [theeternabot_exclusion_KL_Trp_A_2]	269 nM	217 nM	279 nM	282 nM	292 nM
AGACCACAAAGUGGUCAGUGUUCGCUGCGGCGAGGACCGGUACGGCCGCCACUCGCGAGUGAUGUUCGCGAGCGCAGCGAACACA [Omei KL Tryp A Exc A v3]	89.4 nM	88.8 nM	92.7 nM	65 nM	88.5 nM
GAUUAAUAAGAGGAUACCAGUACUAAUAAAGUACAUUAAUAGUAGAGUGAUGUUCUAAAGUACCCUUGGCAGCUUAGAGUAAGUU [#08 K4 Theophylline B Exclusion]	128 nM	224 nM	157 nM	226 nM	97.5 nM
GUCAUGCGUUCAGGAUAUGGACCAAUUUAUAUUGCUUAUGCUGUGCCCUGUAUGGCAGUGAUGUUGCCAGAAGGGAGGGCAUGCA [Erbionvean]	116 nM	88 nM	96.6 nM	111 nM	102 nM
UAGUGGUAGACCAGAUCUACCACUAGGGAUACCAGCCUCGGUCGAGGCCCUUGGCAGCCCAGCGGGUCCAGUGAUGUUGGAUGUC [Raanza]	355 nM	256 nM	322 nM	194 nM	295 nM
GUGAAGGAGCUGCAGUGAUGUUGCAGAGACUAGGAUAUCAGGAAACUGAGAAGGAGUCAACUCCUUCACCUAGACAACAUCACUA [[F]''-[K1]-[K2]-[F1]-[F2]-[F2]'-[F1]'-[K]'_Design2]	148 nM	151 nM	128 nM	269 nM	187 nM
CACGAUGAAUUCUCUAGGAGUGAUGUUUUUCGAGGACCGGUACGGCCGCCACUCGGACCAGGAGCGUGGUAGCGGCGAAAAGACU [zpmullin]	769 nM	256 nM	545 nM	523 nM	484 nM
AUGUACACGAUAGUGUACUCCUAGUGAUGUUAGGAUAUGCAGAUAUGCAGAAGGGACAAGUCAUCUGACAAUAGUCGGAUGACAA [FmnAX 10 #OpenEnded #K4Early]	179 nM	85.6 nM	109 nM	114 nM	91.5 nM
AGACUACCUACACUGUCAAUAGACAGUGACUAGGAUAUGCUGAUAAGCAGAAGGAGUGAUGUUCCUAAUAAAAGGUGGUAGUCAU [FmnAX 19 #SwitchBubble #StaticStem #K4Early]	309 nM	258 nM	230 nM	284 nM	173 nM
GGCCGGAAGGCGAGCGCUCCCACUCCGGAAGGAGCGCCCGUAAGGGCAGGUAGGUCGCCGGAGUGAUGUUCCGGUGGAGGGCUCG [#2 Exclusion - Arginine A Attempt #21 (Inspired by Omei)]	165 nM	106 nM	180 nM	302 nM	186 nM
UGGCGGACGAUCCGGAGUGAUGUUCCGGAUACCAGCAGAAGAGCCUGCCCUUGGCAGCCGUGCGACGCUGGGAGAGUCCGGCGUC [Requered]	104 nM	88 nM	104 nM	107 nM	99.7 nM
ACGCGCGCGAGUGAUGUUCGGAGCGGCUGGCAGGAUAUGUAGCAAUGCAGAAGGGUCGUGGCGCGUCCAGGGUAACCUGGACGCG [#2 Exclusion - FMN A Attempt #26 (HarryS)]	280 nM	229 nM	1040 nM	455 nM	719 nM
CCGGUUCCAACGCUGACUGAAGAACAUGAUACCAGUCGAGGACUCGACCCUUGGCAGCAUUAUAGAGUGAUGUUCGCUUCAGAAA [theeternabot_sameState_KL_Theo_A_15]	157 nM	140 nM	189 nM	367 nM	117 nM
GUUGUCUACCAGAGGUGAUGUAUAGUAUCGCGAGGACCGGUACGGCCGCCACUCGUGAAGAGAAAGGAGUGAUGUUCCGUAAUGG [C10]	255 nM	271 nM	293 nM	301 nM	118 nM
AGUGAACGAGCGGCCGCCACUAAAUGAGUGAUGUUCGUGAGUAGUGCUGUUCUCAUGAUUGUUUUUAGGACCGGGUUCGAUGUUG [edcclmullin]	937 nM	739 nM	762 nM	576 nM	662 nM
AGGUGAGACUGAAGGAGCGAUCGCGCUAGUGAUGUUGGCGAGCAUGACAAAGUCAUGCACGAUCAGGUAGGUCGCAGUCUUACUC [Omei KL Arginine B SS B v1]	128 nM	103 nM	137 nM	123 nM	141 nM
UUAUUAUAUUGUAAUGAUAUAGAAACCGAAGGAGCGACAUAAAAGUCAGGUAGGUCGCGGUGUACUCAGUGAUGUUGAGAGUAUU [JR_SSArginiA_Sub013]	141 nM	265 nM	172 nM	271 nM	100 nM

— the supplement of paper PMC9170038
